The values below come from PMC7904744, “Poly(ADP-ribosyl)ation enhances HuR oligomerization and contributes to pro-inflammatory gene mRNA stabilization”.

What all share (settings): protein: recombinant; tags: GST; label: 5' biotin
The target in series [1] is T1, GST-HuR-RRM1 (UniProt Q15717 20-98). In words: EMSA; no multiple shifted bands (Fig 4d); EMSA: 3 mM MgCl2, 40 mM KCl, 5% glycerol, 2 mM DTT, 2 ug tRNA, 5 nM RNA, 40 min room temperature; pH not stated; 6% native acrylamide gel.
The target of the next series is GST-HuR (UniProt Q15717 1-326). Put plainly: EMSA; unmodified; multiple shifted bands (oligomer); EMSA: 3 mM MgCl2, 40 mM KCl, 5% glycerol, 2 mM DTT, 2 ug tRNA, 5 nM RNA, 40 min room temperature; pH not stated; 6% native acrylamide gel.
GST-HuR, sequence (Q15717 whole entry): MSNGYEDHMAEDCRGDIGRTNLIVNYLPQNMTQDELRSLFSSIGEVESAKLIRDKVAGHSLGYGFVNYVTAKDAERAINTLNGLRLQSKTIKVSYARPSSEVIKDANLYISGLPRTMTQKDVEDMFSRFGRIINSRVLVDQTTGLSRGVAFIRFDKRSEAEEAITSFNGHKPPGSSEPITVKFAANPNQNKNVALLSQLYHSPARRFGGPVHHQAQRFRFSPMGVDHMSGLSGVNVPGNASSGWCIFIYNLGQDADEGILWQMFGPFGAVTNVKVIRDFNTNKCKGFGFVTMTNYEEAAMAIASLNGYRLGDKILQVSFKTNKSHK
Series [2] concerns the target T1, GST-HuR-RRM1. Put plainly: EMSA; EMSA: 3 mM MgCl2, 40 mM KCl, 5% glycerol, 2 mM DTT, 2 ug tRNA, 5 nM RNA, 40 min room temperature; pH not stated; 6% native acrylamide gel.

T1 sequence (Q15717 20-98): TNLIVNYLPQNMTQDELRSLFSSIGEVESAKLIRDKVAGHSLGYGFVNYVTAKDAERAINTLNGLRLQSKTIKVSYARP

In the case of CUAUGUAUUUAUUUAUUUAUUAAUU (ssRNA) [Cxcl2 ARE RNA oligo], the binding result with GST-HuR-RRM1 [1] and in the series with GST-HuR was “binds” each time.
Consider AUUUAUUUAUUUAUUUAUUUAUUUA (ssRNA) [AU-rich RNA oligo (tandem ARE repeat)], for which the binding result with GST-HuR and with GST-HuR-RRM1 [2] was “binds” throughout.
